Earlier results on two molecules are cited in article PMC4409539 (Cancer gene therapy, 2015).

For one series, the system named is pancreatic tumor cells. As to conditions: pancreatic tumor cells infected at 25 pfu/cell with bCD.
The conditions of series [1]: yCD versus bCD.

For bacterial cytosine deaminase [bCD], in the series on pancreatic tumor cells, the 5-FC conversion was 0.2 to 0.7 pmol/min/mg.

B1: yeast cytosine deaminase (protein, UniProt Q12178 1-158, looked up)
Cytosine deaminase: MVTGGMASKWDQKGMDIAYEEAALGYKEGGVPIGGCLINNKDGSVLGRGHNMRFQKGSATLHGEISTLENCGRLEGKVYKDTTLYTTLSPCDMCTGAIIMYGIPRCVVGENVNFKSKGEKYLQTRGHEVVVVDDERCKKIMKQFIDERPQDWFEDIGE
Consider B1, for which, in series [1], the “Km for 5-FC, fold lower than bCD” value was 22 fold and the “thermal stability compared with bCD” value is given as “more thermolabile than bCD”.
